Marks after values point to notes of the source that are not given here.
Key:
[1] = system: Msr1^hu/hu ApoE^−/− mice, peritoneal cells; assay: Ex vivo LPS-induced cytokine production by peritoneal cells after in vivo dosing; design: species or system mouse; conditions: for Cytokine IL-6 / Cytokine KC-GRO / Cytokine TNF-α: ex vivo LPS
Procedure: To examine the anti-inflammatory effect of the anti-MSR1 antibody-steroid conjugates, an ex-vivo and in vivo LPS-induced inflammatory immune response model was performed.
Generation of a mouse inflammatory immune response model. Mice homozygously expressing human MSR1 extracellular domain in place of the mouse MSR1 extracellular domain and with a homozygous deletion of the ApoE gene were utilized (resulting mice referred to as Msr1^hu/hu ApoE^−/− mice).
Assay protocol for ex vivo LPS-induced responses. In ex vivo LPS challenge experiments, mice were intraperitoneally administered with 10 μL/g of anti-MSR1 antibody-steroid conjugates (H1H21234N-N297Q-LP13), isotype control steroid conjugate (Isotype control-LP13), unconjugated anti-MSR1 antibody (H1H21234N-N297Q) and isotype control antibodies at different time points (24, 48, and 72 hours) prior to harvesting the peritoneal cells from peritoneal cavity. […] All mice were sacrificed at 0 hour time point and peritoneal cells were obtained from the peritoneum by the peritoneal lavage technique. In brief, 5 mL of ice cold 1×PBS (ThermoFisher Scientific, Cat #20012027) containing 2% BSA (Gibco, Cat #A9576) and 0.6 mM EDTA (ThermoFisher Scientific, Cat #15575020) were injected into the peritoneal cavity using 27 g needle. […] The resuspended cells were plated at 500,000 cells per well in 24-well tissues culture plates and incubated with or without 10 ng/mL of LPS for 18 hours.
Measurement of cytokines at 18 hours post-LPS ex vivo challenge. Supernatants were collected into 96-well round bottom tissue culture plates at 18 hours post-ex vivo LPS challenge and stored at […] until further analysis. Cytokine concentrations in the supernatants were measured using a Proinflammatory Panel 1 (mouse) multiplex immunoassay kit (MesoScale Diagnostics, Cat #K15048D) according to manufacturer's instructions. Electrochemiluminescence was read on a Meso Scale Diagnostics SECTOR® instrument. Data analysis was performed using GraphPad Prism™ software. Statistical significance within the groups was determined by one-way Anova with Turkey's multiple comparison post-test (*p<0.01; **p<0.001; ***p<0.0001).

[2] = target: T1, biot-AGE-BSA binding to His9-hMSR1 (Homo sapiens, UniProt P21757); assay: Competition sandwich ELISA, blocking of biot-AGE-BSA binding; conditions: 400 pM biot-AGE-BSA
T1 construct: human MSR1 extracellular domain expressed with a N-terminal nonahistidine tag; His9 (nonahistidine) (N); purchased R&D Systems 2708-MS
T1 sequence (P21757 77-451 limits assumed): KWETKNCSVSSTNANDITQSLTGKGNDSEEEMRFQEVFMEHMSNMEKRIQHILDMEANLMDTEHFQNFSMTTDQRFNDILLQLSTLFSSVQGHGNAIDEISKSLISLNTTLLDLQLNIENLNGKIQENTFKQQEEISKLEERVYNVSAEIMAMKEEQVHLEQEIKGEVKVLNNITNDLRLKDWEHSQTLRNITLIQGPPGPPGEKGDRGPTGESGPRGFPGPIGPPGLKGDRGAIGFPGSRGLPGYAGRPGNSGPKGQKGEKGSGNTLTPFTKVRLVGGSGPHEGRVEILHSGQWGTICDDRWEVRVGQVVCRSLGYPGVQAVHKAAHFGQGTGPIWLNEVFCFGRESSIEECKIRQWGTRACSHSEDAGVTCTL
Procedure: The ability of anti-MSR1 antibodies disclosed herein to block the binding of various ligands to human MSR1 was measured using three competition sandwich ELISA assays. The ligands used in the assays were: (1) acetylated LDL (Ac-LDL), (2) oxidized LDL (Ox-LDL), and (3) advanced glycation end-products of bovine serum albumin (AGE-BSA).
For the assay, recombinant monomeric human MSR1 protein comprised of a portion of the human MSR1 extracellular domain expressed with a N-terminal 9-Histidine tag (His9-hMSR1; R&D Systems, Cat #2708-MS) was coated at a concentration of 2 μg/mL in PBS on a 96-well microtiter plate overnight at 4° C. for use in competition ELISA assays with Ac-LDL, Ox-LDL, or biotinylated-AGE-BSA (“biot-AGE-BSA”). […] Anti-MSR1 antibodies or isotype control antibodies were serially diluted as appropriate for each tested ligand and added in duplicate for each serial dilution set to microtiter plates coated with His9-hMSR1. Buffer alone was also added to wells on each coat. After 1 hour incubation at room temperature, without wash, a final constant concentration of 50 pM Ac-LDL (Life Technologies/ThermoFisher Scientific, Cat #L-35354), 5 nM or 10 nM Ox-LDL (Alfa Aesar, Cat #J65591), or 400 pM biot-AGE-BSA (R&D Systems, Cat #BT4127) were added to plates with His9-hMSR1, and the plates were incubated for an additional 1 hour at room temperature. (Concentrations of Ac-LDL, Ox-LDL and biot-AGE-BSA for antibody inhibition assays were selected from the approximate midway point within the linear portion of individual binding curves of Ac-LDL, Ox-LDL or biot-AGE-BSA to plate-coated His9-hMSR1.) Wells were washed, and plate-bound Ac-LDL or Ox-LDL were detected with anti-LDL rabbit antibody (Alfa Aesar, Cat #J64398) in combination with anti-rabbit IgG (H+L) specific donkey polyclonal antibodies conjugated with horseradish peroxidase (HRP) (JacksonImmunoResearch, Cat #711-035-152) and biot-AGE-BSA was detected with a streptavidin-HRP (ThermoFisher Scientific, Cat #N200). Plates were developed using TMB substrate solution (BD Biosciences, Cat #51-2606KC & Cat #51-2607KC) according to manufacturer's recommendation and absorbance at 450 nm was measured on a Victor™ Multilabel Plate Reader (PerkinElmer™). This assay was conducted in four different assay runs.
Data analysis was performed using a sigmoidal dose-response model within Prism™ software (GraphPad). Percent blockade at maximum concentration of the antibody tested in each assay was calculated as an indicator of the ability of the antibodies to block the binding of Ac-LDL, Ox-LDL or biot-AGE-BSA to His9-hMSR1 on the plate relative to the baseline of the assay. In the calculation, binding signal of the same concentrations of Ac-LDL, Ox-LDL, or biot-AGE-BSA used for the assays in the absence of antibody was referenced as 100% binding or 0% blocking, while the baseline of the assay, defined as binding signal of the sample of buffer without MSR1 ligands or antibody, was referenced as 0% binding or 100% blocking. The maximum percent blockade at the highest concentration of antibody tested in each assay are reported for all antibodies. Negative percent blockade numbers reflected higher MSR1 ligands binding to plate coated His9-hMSR1 in the presence of antibodies.

[3] = administered 24 hours before peritoneal cell isolation
[4] = administered 48 hours before peritoneal cell isolation
[5] = administered 72 hours before peritoneal cell isolation

B1: H1H21234N-N297Q-LP13 (conjugate)
VH: QVQLQESGPGLVKPSETLSLTCTVTGGSISRNYWSWIRQPPGKGLEWIGYIYYSGSIDYNPSLKSRVTISVDTSKNQFSLKLSSMTAADTAVYYCARDRWNWKYGMDVWGQGTTVIVSS
VL: EIVLTQSPGTLSLSPGERATLSCRASQTVRNNYLAWYHQKPGQAPRLLIYGASSRATGIPDRFSGSGSGTDFTLTISRLEPEDFTVYYCHQYGNSPWTFGQGTKMEIKR
[1]; [3]
  Cytokine IL-6: 21.1 ± 1.38**** ng/mL
  Cytokine KC-GRO: 9.3 ± 1.7 ng/mL
  Cytokine TNF-α: 0.26 ± 0.08*** ng/mL
[1]; [4]
  Cytokine KC-GRO: 6.3 ± 2.3* ng/mL
  Cytokine TNF-α: 0.58 ± 0.06* ng/mL
[1]; [5]
  Cytokine IL-6: 50.7 ± 14.1* ng/mL
  Cytokine KC-GRO: 13.1 ± 1.1 ng/mL
  Cytokine TNF-α: 0.47 ± 0.1** ng/mL
[1]; i.p. dosing 24, 48, 72 hours (conjugates, antibodies) or 2 hours (free steroids) before cell harvest, 10 ng/mL LPS 18 hours
  effect on ex vivo LPS-induced cytokine production (IL-6, KC-GRO, TNF-α) by peritoneal cells: efficacious in inhibiting LPS-induced cytokine production by peritoneal cells in a time-dependent manner

B2: H1H21227N-N297Q: "modified versions of 21227N (H1H21227N-N297Q and H1H21227N-N297D)"; anti-MSR1 antibody "with a N297Q single point mutation" (antibody, V domains shown)
VH: QVQLVQSGAEVKKPGASVKVSCKVSGYTLTELSIHWVRQVPGKGLEWMGGFDPEEGETIFAQEFRDRVTLTEDTSPDTAYMELSSLKSEDAAVYYCTTPRYCNNGICYDYWGQGTLVTVSS
VL: DIQMTQSPSSLSASVGDRVTITCRASQSISNYLNWYQQKPGKAPKLLIYTASSLQSGVPSRFSGSGSGTDFTLTISSLQTEDFATYYCQQSYSNFPITFGQGTRLEIKR
[2]
  Anti-MSR1 antibody (300 nM) blocking of biot-AGE-BSA binding to His9-hMSR1 % Blocking: 96%

B3: H1H21231N-N297Q: modified version of "21231N (H1H21231N-N297Q) anti-MSR1 antibodies" with "a N297Q single point mutation" (antibody, V domains shown)
VH: EVQLVESGGGLVQPGGSLRLSCAASGFTFSDHYMDWVRQAPGKGLEWVGRTRNKANSHTTEYTASVTGRFTISRDDSRNSLYLQMNSLKTEDTAVYYCVRAGIIGTLFDYWGQGTLVTVSS
VL: DIQMTQFPSSLSASVGDRVTITCRASQSISSFLNWFQQKPGKAPKFLIYAASSLQSGVPSRFSGSGSGTDFTLTISSLQPEDFATYYCQQSYSSPPITFGQGTRLEIKR
[2]
  Anti-MSR1 antibody (300 nM) blocking of biot-AGE-BSA binding to His9-hMSR1 % Blocking: −50%

B4: H1H21231N: "anti-MSR1 antibodies ... (21227N, 21231N, 21234N) were produced with the original human Fcγ portion"; "H1H" = human IgG1 Fc (antibody, V domains shown)
VH: EVQLVESGGGLVQPGGSLRLSCAASGFTFSDHYMDWVRQAPGKGLEWVGRTRNKANSHTTEYTASVTGRFTISRDDSRNSLYLQMNSLKTEDTAVYYCVRAGIIGTLFDYWGQGTLVTVSS
VL: DIQMTQFPSSLSASVGDRVTITCRASQSISSFLNWFQQKPGKAPKFLIYAASSLQSGVPSRFSGSGSGTDFTLTISSLQPEDFATYYCQQSYSSPPITFGQGTRLEIKR
modifications: human IgG1 Fc
notes: "anti-MSR1 antibodies ; (21227N, 21231N, 21234N) were produced with the original human Fcγ portion"; "H1H" = human IgG1 Fc
[2]
  Anti-MSR1 antibody (300 nM) blocking of biot-AGE-BSA binding to His9-hMSR1 % Blocking: −44%

B5: H1H21227N: "anti-MSR1 antibodies ... (21227N, 21231N, 21234N) were produced with the original human Fcγ portion"; "H1H" = human IgG1 Fc (antibody, V domains shown)
VH: QVQLVQSGAEVKKPGASVKVSCKVSGYTLTELSIHWVRQVPGKGLEWMGGFDPEEGETIFAQEFRDRVTLTEDTSPDTAYMELSSLKSEDAAVYYCTTPRYCNNGICYDYWGQGTLVTVSS
VL: DIQMTQSPSSLSASVGDRVTITCRASQSISNYLNWYQQKPGKAPKLLIYTASSLQSGVPSRFSGSGSGTDFTLTISSLQTEDFATYYCQQSYSNFPITFGQGTRLEIKR
modifications: human IgG1 Fc
notes: as for B4
[2]
  Anti-MSR1 antibody (300 nM) blocking of biot-AGE-BSA binding to His9-hMSR1 % Blocking: 99%

B6: H1H21227N-N297D: "The 21227N antibody was also produced as a third version with a N297D mutation" (antibody, V domains shown)
VH: QVQLVQSGAEVKKPGASVKVSCKVSGYTLTELSIHWVRQVPGKGLEWMGGFDPEEGETIFAQEFRDRVTLTEDTSPDTAYMELSSLKSEDAAVYYCTTPRYCNNGICYDYWGQGTLVTVSS
VL: DIQMTQSPSSLSASVGDRVTITCRASQSISNYLNWYQQKPGKAPKLLIYTASSLQSGVPSRFSGSGSGTDFTLTISSLQTEDFATYYCQQSYSNFPITFGQGTRLEIKR
[2]
  Anti-MSR1 antibody (300 nM) blocking of biot-AGE-BSA binding to His9-hMSR1 % Blocking: 97%

Reference: US12497460B2, “Anti-MSR1 antibodies and methods of use thereof” (REGENERON PHARMACEUTICALS, INC., priority 2018, dated 2025)
